Experimental data: patent publication US20200317768A1 (published 2020)
Residue numbers refer to the chain shown, from its start.

B1: M103205H795-P1495m/M103202L889-SK1 (antibody, human IgG1, kappa)
heavy: not shown
light: DIVMTQSPATLSLSPGERATLSCTSSQSVYHANWLSWFQQKPGQPPKLLIYWASTLAYGVPSRFSGSGSGTDFTLTISSLQPEDAATYYCAGGYGGGRYAFGQGTKVEIKRTVAAPSVFIFPPSDEQLKSGTASVVCLLNNFYPREAKVQWKVDNALQSGNSQESVTEQDSKDSTYSLSSTLTLSKADYEKHKVYACEVTHQGLSSPVTKSFNRGEC
B2: M103205H795-P1534m/M103202L889-SK1 (antibody, human IgG1, kappa)
heavy: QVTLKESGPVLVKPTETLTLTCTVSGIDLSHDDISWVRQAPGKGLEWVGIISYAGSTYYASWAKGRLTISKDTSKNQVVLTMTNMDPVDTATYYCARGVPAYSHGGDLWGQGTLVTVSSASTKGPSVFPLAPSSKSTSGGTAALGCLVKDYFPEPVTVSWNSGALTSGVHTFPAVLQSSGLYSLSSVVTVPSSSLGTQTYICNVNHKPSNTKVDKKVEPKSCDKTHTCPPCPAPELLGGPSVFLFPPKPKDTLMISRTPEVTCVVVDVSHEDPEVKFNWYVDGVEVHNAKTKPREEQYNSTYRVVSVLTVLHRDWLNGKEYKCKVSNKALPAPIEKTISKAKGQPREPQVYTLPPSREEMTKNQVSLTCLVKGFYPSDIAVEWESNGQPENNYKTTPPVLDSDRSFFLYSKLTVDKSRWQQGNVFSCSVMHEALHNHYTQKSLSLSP
light: B1 light
B3: M103205H795-P1547m/M103202L889-SK1 (antibody, human IgG1, kappa)
heavy: QVTLKESGPVLVKPTETLTLTCTVSGIDLSHDDISWVRQAPGKGLEWVGIISYAGSTYYASWAKGRLTISKDTSKNQVVLTMTNMDPVDTATYYCARGVPAYSHGGDLWGQGTLVTVSSASTKGPSVFPLAPSSKSTSGGTAALGCLVKDYFPEPVTVSWNSGALTSGVHTFPAVLQSSGLYSLSSVVTVPSSSLGTQTYICNVNHKPSNTKVDKKVEPKSCDKTHTCPPCPAPELLGGPSVFLFPPKPKDTLMISRTPEVTCVVVDVSHEDPEVKFNWYVDGVEVHNAKTKPREEQYNSTYRVVSVLTVLHRDWLNGKEYKCKVSNKALPAPIEKTISKAKGQPREPQVYTLPPSREEMTKNQVSLTCLVKGFYPSDIAVEWESNGQPENNYKTTPPVLDSDKSFFLYSKLTVKKSRWQQGNVFSCSVMHEALHNHYTQKSLSLSP
light: B1 light
B4: M103205H795-P1522m/M103202L889-SK1 (antibody, human IgG1, kappa)
heavy: not shown
light: B1 light
B5: M103205H795-P1529m/M103202L889-SK1 (antibody, human IgG1, kappa)
heavy: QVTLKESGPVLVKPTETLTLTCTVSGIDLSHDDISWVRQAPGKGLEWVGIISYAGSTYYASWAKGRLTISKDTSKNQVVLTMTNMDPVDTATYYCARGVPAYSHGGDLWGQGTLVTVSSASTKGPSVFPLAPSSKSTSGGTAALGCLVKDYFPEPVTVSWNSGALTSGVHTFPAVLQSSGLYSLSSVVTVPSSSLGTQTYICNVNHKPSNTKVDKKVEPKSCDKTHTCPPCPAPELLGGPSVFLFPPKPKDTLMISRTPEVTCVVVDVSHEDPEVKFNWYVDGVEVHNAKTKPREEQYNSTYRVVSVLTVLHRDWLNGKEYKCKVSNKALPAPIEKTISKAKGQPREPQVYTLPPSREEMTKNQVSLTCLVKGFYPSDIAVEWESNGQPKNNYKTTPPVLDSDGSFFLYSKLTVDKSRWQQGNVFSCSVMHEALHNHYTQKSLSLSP
light: B1 light
B6: M103205H795-P1546m/M103202L889-SK1 (antibody, human IgG1, kappa)
heavy: B3 heavy with K404R
light: B1 light
B7: M103205H795-P1524m/M103202L889-SK1 (antibody, human IgG1, kappa)
heavy: not shown
light: B1 light
B8: M103205H795-P1525m/M103202L889-SK1 (antibody, human IgG1, kappa)
heavy: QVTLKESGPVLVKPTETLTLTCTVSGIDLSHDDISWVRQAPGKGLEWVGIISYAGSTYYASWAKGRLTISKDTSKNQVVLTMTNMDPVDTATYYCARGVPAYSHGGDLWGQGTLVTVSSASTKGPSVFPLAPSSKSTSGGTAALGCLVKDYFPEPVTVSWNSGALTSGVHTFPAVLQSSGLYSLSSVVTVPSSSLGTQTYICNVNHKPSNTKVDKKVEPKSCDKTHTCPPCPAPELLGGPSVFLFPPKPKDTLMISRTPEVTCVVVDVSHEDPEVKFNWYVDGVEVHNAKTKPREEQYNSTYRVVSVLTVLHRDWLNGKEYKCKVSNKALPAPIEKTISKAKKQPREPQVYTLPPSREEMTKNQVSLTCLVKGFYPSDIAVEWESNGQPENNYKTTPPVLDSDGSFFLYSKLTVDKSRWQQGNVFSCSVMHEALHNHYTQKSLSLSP
light: B1 light
B9: M103205H795-P1501m/M103202L889-SK1 (antibody, human IgG1, kappa)
heavy: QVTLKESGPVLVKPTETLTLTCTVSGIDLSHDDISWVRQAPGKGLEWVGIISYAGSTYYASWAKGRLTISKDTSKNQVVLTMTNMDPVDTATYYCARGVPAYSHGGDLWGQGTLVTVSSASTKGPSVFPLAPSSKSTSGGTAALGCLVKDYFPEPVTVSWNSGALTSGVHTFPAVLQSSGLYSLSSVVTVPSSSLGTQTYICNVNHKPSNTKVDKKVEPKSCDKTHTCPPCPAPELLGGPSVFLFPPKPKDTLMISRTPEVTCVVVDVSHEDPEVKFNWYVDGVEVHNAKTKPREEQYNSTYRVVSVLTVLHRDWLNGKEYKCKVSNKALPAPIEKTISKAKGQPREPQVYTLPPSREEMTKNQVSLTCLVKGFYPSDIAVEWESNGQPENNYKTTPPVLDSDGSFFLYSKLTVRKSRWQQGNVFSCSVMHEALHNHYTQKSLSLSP
light: B1 light
B10: M103205H795-P1530m/M103202L889-SK1 (antibody, human IgG1, kappa)
heavy: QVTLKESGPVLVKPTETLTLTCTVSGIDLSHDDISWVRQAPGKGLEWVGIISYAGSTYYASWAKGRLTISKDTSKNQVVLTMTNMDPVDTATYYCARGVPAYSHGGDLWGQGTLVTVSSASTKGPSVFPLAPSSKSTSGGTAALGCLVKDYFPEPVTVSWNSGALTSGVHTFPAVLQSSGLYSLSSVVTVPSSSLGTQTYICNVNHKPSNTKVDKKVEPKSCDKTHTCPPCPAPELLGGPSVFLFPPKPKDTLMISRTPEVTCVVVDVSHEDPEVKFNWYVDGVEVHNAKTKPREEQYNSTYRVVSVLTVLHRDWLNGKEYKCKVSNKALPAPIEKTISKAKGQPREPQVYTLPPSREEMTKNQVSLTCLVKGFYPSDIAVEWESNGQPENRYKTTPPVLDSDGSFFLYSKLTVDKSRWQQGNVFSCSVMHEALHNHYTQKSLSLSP
light: B1 light
B11: M103205H795-P1523m/M103202L889-SK1 (antibody, human IgG1, kappa)
heavy: not shown
light: B1 light
B12: M103205H795-P1500m/M103202L889-SK1 (antibody, human IgG1, kappa)
heavy: not shown
light: B1 light
B13: M103205H795-P1528m/M103202L889-SK1 (antibody, human IgG1, kappa)
heavy: not shown
light: B1 light
B14: M103205H795-P1535m/M103202L889-SK1 (antibody, human IgG1, kappa)
heavy: not shown
light: B1 light
B15: M103205H795-P1542m/M103202L889-SK1 (antibody, human IgG1, kappa)
heavy: not shown
light: B1 light
B16: M103205H795-P1541m/M103202L889-SK1 (antibody, human IgG1, kappa)
heavy: not shown
light: B1 light
B17: M103205H795-P1536m/M103202L889-SK1 (antibody, human IgG1, kappa)
heavy: not shown
light: B1 light
B18: M103205H795-P1499m/M103202L889-SK1 (antibody, human IgG1, kappa)
heavy: not shown
light: B1 light
notes: also called MS1032LO06-P1499m
B19: M103205H795-P1538m/M103202L889-SK1 (antibody, human IgG1, kappa)
heavy: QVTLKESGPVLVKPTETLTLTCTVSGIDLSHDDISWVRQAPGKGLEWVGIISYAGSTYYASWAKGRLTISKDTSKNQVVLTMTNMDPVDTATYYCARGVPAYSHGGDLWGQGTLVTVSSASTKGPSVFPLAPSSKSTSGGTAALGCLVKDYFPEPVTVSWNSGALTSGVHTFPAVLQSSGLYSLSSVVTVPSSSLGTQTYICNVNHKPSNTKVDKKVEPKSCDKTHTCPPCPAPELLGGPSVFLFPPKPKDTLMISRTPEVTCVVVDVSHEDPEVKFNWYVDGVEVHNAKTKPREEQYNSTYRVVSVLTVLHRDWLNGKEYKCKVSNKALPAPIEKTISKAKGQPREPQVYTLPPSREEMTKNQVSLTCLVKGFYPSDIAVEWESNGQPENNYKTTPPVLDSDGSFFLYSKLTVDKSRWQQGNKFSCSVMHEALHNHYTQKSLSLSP
light: B1 light
B20: M103205H795-P1496m/M103202L889-SK1 (antibody, human IgG1, kappa)
heavy: not shown
light: B1 light
B21: M103205H795-P1548m/M103202L889-SK1 (antibody, human IgG1, kappa)
heavy: B3 heavy with G387R, D403R, K404G, K415D
light: B1 light
B22: M103205H795-P1537m/M103202L889-SK1 (antibody, human IgG1, kappa)
heavy: not shown
light: B1 light
B23: M103205H795-P1544m/M103202L889-SK1 (antibody, human IgG1, kappa)
heavy: B3 heavy with D403R, K404G
light: B1 light
B24: M103205H795-P1527m/M103202L889-SK1 (antibody, human IgG1, kappa)
heavy: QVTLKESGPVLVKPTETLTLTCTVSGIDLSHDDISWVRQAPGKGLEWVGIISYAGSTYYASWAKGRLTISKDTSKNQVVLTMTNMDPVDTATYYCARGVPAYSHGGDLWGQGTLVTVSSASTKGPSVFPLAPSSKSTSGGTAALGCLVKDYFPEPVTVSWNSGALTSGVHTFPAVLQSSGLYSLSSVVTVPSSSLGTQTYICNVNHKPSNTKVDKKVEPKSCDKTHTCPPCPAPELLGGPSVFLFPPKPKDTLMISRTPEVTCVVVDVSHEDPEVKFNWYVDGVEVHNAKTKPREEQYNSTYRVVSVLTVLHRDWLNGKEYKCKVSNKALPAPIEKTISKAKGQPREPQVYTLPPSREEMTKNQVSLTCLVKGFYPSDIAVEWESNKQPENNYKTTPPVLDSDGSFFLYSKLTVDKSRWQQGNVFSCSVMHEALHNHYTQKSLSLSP
light: B1 light
B25: M103205H795-P1543m/M103202L889-SK1 (antibody, human IgG1, kappa)
heavy: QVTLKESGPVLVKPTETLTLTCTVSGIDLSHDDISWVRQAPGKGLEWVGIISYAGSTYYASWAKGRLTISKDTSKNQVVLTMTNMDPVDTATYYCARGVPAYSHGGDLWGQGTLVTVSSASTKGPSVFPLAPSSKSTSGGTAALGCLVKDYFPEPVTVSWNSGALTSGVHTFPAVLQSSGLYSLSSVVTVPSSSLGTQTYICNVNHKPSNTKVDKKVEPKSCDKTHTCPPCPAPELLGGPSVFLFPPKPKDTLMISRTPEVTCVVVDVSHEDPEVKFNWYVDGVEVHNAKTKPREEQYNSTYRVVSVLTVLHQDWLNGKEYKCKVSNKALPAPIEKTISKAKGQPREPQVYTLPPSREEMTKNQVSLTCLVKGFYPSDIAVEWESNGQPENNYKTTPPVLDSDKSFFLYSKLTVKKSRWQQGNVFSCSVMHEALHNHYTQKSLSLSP
light: B1 light
B26: M103205H795-P1540m/M103202L889-SK1 (antibody, human IgG1, kappa)
heavy: not shown
light: B1 light
B27: M103205H795-P1531m/M103202L889-SK1 (antibody, human IgG1, kappa)
heavy: not shown
light: B1 light
B28: M103205H795-P1533m/M103202L889-SK1 (antibody, human IgG1, kappa)
heavy: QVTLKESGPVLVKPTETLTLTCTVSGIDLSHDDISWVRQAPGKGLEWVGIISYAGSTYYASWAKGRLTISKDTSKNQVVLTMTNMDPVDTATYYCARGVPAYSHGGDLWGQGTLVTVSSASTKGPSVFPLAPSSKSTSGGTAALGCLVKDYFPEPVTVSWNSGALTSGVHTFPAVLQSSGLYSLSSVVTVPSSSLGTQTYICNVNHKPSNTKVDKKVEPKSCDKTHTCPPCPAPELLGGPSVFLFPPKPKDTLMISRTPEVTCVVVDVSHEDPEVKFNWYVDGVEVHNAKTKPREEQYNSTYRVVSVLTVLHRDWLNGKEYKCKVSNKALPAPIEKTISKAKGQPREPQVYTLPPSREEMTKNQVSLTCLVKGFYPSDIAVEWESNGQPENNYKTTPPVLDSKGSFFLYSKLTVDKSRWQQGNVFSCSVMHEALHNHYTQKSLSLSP
light: B1 light
B29: M103205H795-P1497m/M103202L889-SK1 (antibody, human IgG1, kappa)
heavy: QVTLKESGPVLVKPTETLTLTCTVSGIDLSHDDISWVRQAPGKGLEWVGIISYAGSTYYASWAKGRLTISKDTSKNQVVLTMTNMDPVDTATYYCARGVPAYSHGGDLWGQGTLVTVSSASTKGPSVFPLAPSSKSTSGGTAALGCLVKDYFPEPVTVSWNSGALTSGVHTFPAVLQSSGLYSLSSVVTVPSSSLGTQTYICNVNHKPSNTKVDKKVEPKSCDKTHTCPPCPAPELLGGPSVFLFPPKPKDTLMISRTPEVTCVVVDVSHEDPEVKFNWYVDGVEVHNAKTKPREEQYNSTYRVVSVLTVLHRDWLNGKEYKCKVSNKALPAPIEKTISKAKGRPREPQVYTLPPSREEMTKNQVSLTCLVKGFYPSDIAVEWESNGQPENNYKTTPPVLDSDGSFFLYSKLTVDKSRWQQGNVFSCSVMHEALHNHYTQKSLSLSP
light: B1 light
B30: M103205H795-P1539m/M103202L889-SK1 (antibody, human IgG1, kappa)
heavy: not shown
light: B1 light
B31: M103205H795-P1498m/M103202L889-SK1 (antibody, human IgG1, kappa)
heavy: not shown
light: B1 light
B32: M103205H795-P1532m/M103202L889-SK1 (antibody, human IgG1, kappa)
heavy: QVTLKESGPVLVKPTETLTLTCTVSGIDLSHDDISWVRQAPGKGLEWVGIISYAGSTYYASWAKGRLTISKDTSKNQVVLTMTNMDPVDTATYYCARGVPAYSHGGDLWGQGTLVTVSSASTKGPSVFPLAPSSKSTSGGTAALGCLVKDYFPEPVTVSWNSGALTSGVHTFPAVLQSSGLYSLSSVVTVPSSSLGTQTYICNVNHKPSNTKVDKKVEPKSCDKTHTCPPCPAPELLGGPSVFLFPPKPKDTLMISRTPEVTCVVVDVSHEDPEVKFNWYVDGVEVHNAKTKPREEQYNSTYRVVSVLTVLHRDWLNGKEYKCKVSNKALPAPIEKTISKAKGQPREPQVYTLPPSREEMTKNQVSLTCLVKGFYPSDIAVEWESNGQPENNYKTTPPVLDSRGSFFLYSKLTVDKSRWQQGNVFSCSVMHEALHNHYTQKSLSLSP
light: B1 light
B33: M103205H795-P1545m/M103202L889-SK1 (antibody, human IgG1, kappa)
heavy: B3 heavy with D403K, K404G
light: B1 light
B34: M103205H795-P1526m/M103202L889-SK1 (antibody, human IgG1, kappa)
heavy: not shown
light: B1 light

Legend:
[1] = target: T1, human FcγRIIb constitutively expressed on MDCK cells (human, UniProt P31994 43-310); test: cell-based or functional assay
T1 sequence (looked up): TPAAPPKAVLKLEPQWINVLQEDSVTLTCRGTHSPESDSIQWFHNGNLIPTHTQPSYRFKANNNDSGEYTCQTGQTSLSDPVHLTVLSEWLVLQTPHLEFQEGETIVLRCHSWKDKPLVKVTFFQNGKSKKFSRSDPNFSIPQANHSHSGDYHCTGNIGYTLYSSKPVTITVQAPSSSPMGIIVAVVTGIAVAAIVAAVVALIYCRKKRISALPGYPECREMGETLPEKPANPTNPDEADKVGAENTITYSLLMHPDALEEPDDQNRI

[2] = target: T2, soluble mouse FcγRII, His-tagged (mouse, UniProt P08101 30-210, limits assumed); test: SPR, mouse FcgRII-His captured, antigen-antibody complex injected, pH7.4, 25C
T2 construct: Captured on the chip by an anti-His antibody
T2 sequence (looked up): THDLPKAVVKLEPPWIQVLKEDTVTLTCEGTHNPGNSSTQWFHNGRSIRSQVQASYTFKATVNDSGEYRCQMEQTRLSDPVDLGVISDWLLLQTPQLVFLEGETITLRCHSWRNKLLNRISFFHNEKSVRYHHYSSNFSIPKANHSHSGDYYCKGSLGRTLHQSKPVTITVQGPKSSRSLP
Procedure: Regarding the produced Fc region variant-containing antibodies, binding assays between soluble mouse FcγRII and antigen-antibody complexes were performed using BIACORE® T200 (GE Healthcare). Soluble mouse FcγRII was produced in the form of a His-tagged molecule by a method known to those skilled in the art. An appropriate amount of an anti-His antibody was fixed onto Sensor chip CM5 (GE Healthcare) by the amine coupling method using a His capture kit (GE Healthcare) to capture mouse FcγRII. Next, an antibody-antigen complex and a running buffer (as a reference solution) were injected, and interaction was allowed to take place with the mouse FcγRII captured onto the sensor chip. 20 mM N-(2-Acetamido)-2-aminoethanesulfonic acid, 150 mM NaCl, 1.2 mM CaCl₂, and 0.05% (w/v) TWEEN, 20 at pH7.4 was used as the running buffer, and the respective buffer was also used to dilute the soluble mouse FcγRII. To regenerate the sensor chip, 10 mM glycine-HCl at pH1.5 was used. All measurements were carried out at 25° C. […] To calculate the parameters, the BIACORE® T100 Evaluation Software (GE Healthcare) was used.

Binder	celluar uptake [1]	biacore IC binding [2]
B1	1.76 relative to SG1 (=1.00)	1.3 relative to SG1 (=1.00)
B2	3.12 relative to SG1 (=1.00)	1.12 relative to SG1 (=1.00)
B3	4.85 relative to SG1 (=1.00)	1.33 relative to SG1 (=1.00)
B4	2.13 relative to SG1 (=1.00)	1.24 relative to SG1 (=1.00)
B5	2.86 relative to SG1 (=1.00)	1.08 relative to SG1 (=1.00)
B6	5.1 relative to SG1 (=1.00)	1.41 relative to SG1 (=1.00)
B7	3.66 relative to SG1 (=1.00)	1.4 relative to SG1 (=1.00)
B8	3.55 relative to SG1 (=1.00)	1.31 relative to SG1 (=1.00)
B9	2.4 relative to SG1 (=1.00)	1.82 relative to SG1 (=1.00)
B10	3.12 relative to SG1 (=1.00)	1.09 relative to SG1 (=1.00)
B11	1.91 relative to SG1 (=1.00)	1.19 relative to SG1 (=1.00)
B12	1.82 relative to SG1 (=1.00)	1.32 relative to SG1 (=1.00)
B13	3.02 relative to SG1 (=1.00)	1.12 relative to SG1 (=1.00)
B14	2.49 relative to SG1 (=1.00)	1.11 relative to SG1 (=1.00)
B15	3.32 relative to SG1 (=1.00)	1.21 relative to SG1 (=1.00)
B16	7.17 relative to SG1 (=1.00)	1.57 relative to SG1 (=1.00)
B17	2.05 relative to SG1 (=1.00)	1.16 relative to SG1 (=1.00)

Binder	celluar uptake [1]	biacore IC binding [2]
B18	3.61 relative to SG1 (=1.00)	1.98 relative to SG1 (=1.00)
B19	1.84 relative to SG1 (=1.00)	1.11 relative to SG1 (=1.00)
B20	1.69 relative to SG1 (=1.00)	1.28 relative to SG1 (=1.00)
B21	2.3 relative to SG1 (=1.00)	1.37 relative to SG1 (=1.00)
B22	2.77 relative to SG1 (=1.00)	1.32 relative to SG1 (=1.00)
B23	7.66 relative to SG1 (=1.00)	2.04 relative to SG1 (=1.00)
B24	0.92 relative to SG1 (=1.00)	0.98 relative to SG1 (=1.00)
B25	3.7 relative to SG1 (=1.00)	1.19 relative to SG1 (=1.00)
B26	7.64 relative to SG1 (=1.00)	1.73 relative to SG1 (=1.00)
B27	2.35 relative to SG1 (=1.00)	1.01 relative to SG1 (=1.00)
B28	3.52 relative to SG1 (=1.00)	1.18 relative to SG1 (=1.00)
B29	1.38 relative to SG1 (=1.00)	1.49 relative to SG1 (=1.00)
B30	3.2 relative to SG1 (=1.00)	0.9 relative to SG1 (=1.00)
B31	1.56 relative to SG1 (=1.00)	1.38 relative to SG1 (=1.00)
B32	4.16 relative to SG1 (=1.00)	1.23 relative to SG1 (=1.00)
B33	7.73 relative to SG1 (=1.00)	1.8 relative to SG1 (=1.00)
B34	1.2 relative to SG1 (=1.00)	1.04 relative to SG1 (=1.00)
